Measurements published in patent US20240390496A1 (published 2024).

Target: T1, MAGE-A3 peptide on HLA-A*02:01 (human)
T1 peptide: KVAELVHFL
Test: killing

B1: MAGE-A3 (112-120) TCR (MAGE-A3-112-120-Va / MAGE-A3-112-120-Vb) (TCR, V domains shown)
Valpha: GDSVTQTEGLVTLTEGLPVMLNCTYQTIYSNPFLFWYVQHLNESPRLLLKSFTDNKRTEHQGFHATLHKSSSSFHLQKSSAQLSDSALYYCAFDTNTYKVIFGKGTHLHVLP
Vbeta: DMKVTQMPRYLIKRMGENVLLECGQDMSHETMYWYRQDPGLGLQLIYISYDVDSNSEGDIPKGYRVSRKKREHFSLILDSAKTNQTSVYFCASSSTNTEVFFGKGTRLTVL
Does B1 bind?
Result: recognises
